In publication PMC9482650, “Quantitative fragmentomics allow affinity mapping of interactomes” (Nature Communications, 2022):

T1: NHERF3_4, Q5T2W1
T1 sequence (Q5T2W1 373-468, limits assumed, looked up): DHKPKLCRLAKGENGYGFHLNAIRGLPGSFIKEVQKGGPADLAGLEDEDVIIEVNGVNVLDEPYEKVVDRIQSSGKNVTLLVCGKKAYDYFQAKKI

T2: MPDZ_12, O75970
T2 sequence (O75970 1857-1958, limits assumed, looked up): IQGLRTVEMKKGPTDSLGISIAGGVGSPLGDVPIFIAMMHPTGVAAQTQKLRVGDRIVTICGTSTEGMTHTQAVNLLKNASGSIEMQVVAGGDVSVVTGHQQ

T3: DLG3_2, Q92796
T3 sequence (Q92796 221-321, limits assumed, looked up): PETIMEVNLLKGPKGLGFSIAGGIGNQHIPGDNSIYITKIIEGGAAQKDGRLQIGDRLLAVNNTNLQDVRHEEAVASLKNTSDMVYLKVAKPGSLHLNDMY

T4: PARD3B_1, Q8TEW8
T4 sequence (Q8TEW8 196-299, limits assumed, looked up): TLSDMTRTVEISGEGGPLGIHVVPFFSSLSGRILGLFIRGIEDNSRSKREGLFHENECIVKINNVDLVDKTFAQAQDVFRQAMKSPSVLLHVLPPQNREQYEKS

T5: RHPN1, Q8TCX5
T5 sequence (Q8TCX5 508-602, limits assumed, looked up): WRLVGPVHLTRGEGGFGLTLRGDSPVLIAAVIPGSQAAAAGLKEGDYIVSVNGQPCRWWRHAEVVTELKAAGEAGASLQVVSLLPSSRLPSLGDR

T6: DVL3, Q92997
T6 sequence (Q92997 244-331, limits assumed, looked up): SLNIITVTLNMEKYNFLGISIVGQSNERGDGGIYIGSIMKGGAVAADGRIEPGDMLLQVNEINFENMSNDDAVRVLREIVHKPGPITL

T7: SNTG2, Q9NY99
T7 sequence (Q9NY99 68-166, limits assumed, looked up): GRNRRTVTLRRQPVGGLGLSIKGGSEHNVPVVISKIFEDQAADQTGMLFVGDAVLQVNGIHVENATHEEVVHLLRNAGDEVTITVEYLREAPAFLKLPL

T8: DLG3_1, Q92796
T8 sequence (Q92796 125-227, limits assumed, looked up): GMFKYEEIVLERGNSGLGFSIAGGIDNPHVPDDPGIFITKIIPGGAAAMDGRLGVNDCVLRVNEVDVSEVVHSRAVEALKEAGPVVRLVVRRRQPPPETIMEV

T9: APBA2_1, Q99767
T9 sequence (Q99767 563-664, limits assumed, looked up): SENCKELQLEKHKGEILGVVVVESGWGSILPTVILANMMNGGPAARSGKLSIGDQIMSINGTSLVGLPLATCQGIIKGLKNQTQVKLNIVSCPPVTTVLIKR

T10: SHANK1, Q9Y566
T10 sequence (Q9Y566 658-767, limits assumed, looked up): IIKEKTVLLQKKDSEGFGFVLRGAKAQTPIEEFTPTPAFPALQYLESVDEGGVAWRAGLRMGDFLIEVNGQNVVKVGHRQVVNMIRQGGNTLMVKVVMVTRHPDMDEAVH


What follows are binders tested against GRID2IP_2, A4D2P6 (assay: holdup assay). Settings: plain residues with an end cap or a label only (N-terminal biotin on a linker: ado-ado).
Parameters: key: below the threshold = too weak to quantify, mostly under pKd 3.1 to 4

Chain of GRID2IP_2, A4D2P6 (A4D2P6 272-370): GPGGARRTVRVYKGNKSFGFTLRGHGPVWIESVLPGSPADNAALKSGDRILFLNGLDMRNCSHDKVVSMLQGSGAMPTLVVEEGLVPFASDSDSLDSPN

Row | pKd | Binder
1 | 3.84 | PLDSQQHTEV [FAT1, Q14517]
2 | 4.3 | RQSILFSTEV [BCR, P11274]

What follows are binders tested against GRIP2_4, Q9C0E4 (assay: holdup assay). Settings: plain residues with an end cap or a label only (N-terminal biotin on a linker: ado-ado).
Parameters: key: below the threshold = too weak to quantify, mostly under pKd 3.1 to 4

Chain of GRIP2_4, Q9C0E4 (Q9C0E4 446-548): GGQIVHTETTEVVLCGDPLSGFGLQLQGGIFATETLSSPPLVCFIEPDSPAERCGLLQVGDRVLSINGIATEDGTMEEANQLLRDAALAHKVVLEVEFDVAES

Row | pKd | Binder
3 | below the threshold | PLDSQQHTEV [FAT1, Q14517]
4 | below the threshold | RQSILFSTEV [BCR, P11274]

Each binder was assayed against T1, NHERF3_4, Q5T2W1 (assay: holdup assay). Settings: plain residues with an end cap or a label only (N-terminal biotin on a linker: ado-ado).
Parameters: key: below the threshold = too weak to quantify, mostly under pKd 3.1 to 4

Row | pKd | Binder
5 | below the threshold | PLDSQQHTEV [FAT1, Q14517]
6 | 4.37 | RQSILFSTEV [BCR, P11274]

What follows are binders tested against MAST1, Q9Y2H9 (assay: holdup assay). Settings: plain residues with an end cap or a label only (N-terminal biotin on a linker: ado-ado).
Parameters: key: below the threshold = too weak to quantify, mostly under pKd 3.1 to 4

Chain of MAST1, Q9Y2H9 (Q9Y2H9 962-1065): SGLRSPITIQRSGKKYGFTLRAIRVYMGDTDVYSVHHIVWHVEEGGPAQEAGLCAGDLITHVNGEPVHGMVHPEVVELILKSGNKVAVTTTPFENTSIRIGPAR

Row | pKd | Binder
7 | 4.43 | PLDSQQHTEV [FAT1, Q14517]
8 | 4.97 | RQSILFSTEV [BCR, P11274]

These binders were tested against T2, MPDZ_12, O75970 (assay: holdup assay). Settings: plain residues with an end cap or a label only (N-terminal biotin on a linker: ado-ado).
Parameters: key: below the threshold = too weak to quantify, mostly under pKd 3.1 to 4

Row | pKd | Binder
9 | below the threshold | PLDSQQHTEV [FAT1, Q14517]
10 | 4.41 | RQSILFSTEV [BCR, P11274]

The binders below were run against FRMPD2_1, Q68DX3 (assay: holdup assay). Settings: plain residues with an end cap or a label only (N-terminal biotin on a linker: ado-ado).
Parameters: key: below the threshold = too weak to quantify, mostly under pKd 3.1 to 4

Chain of FRMPD2_1, Q68DX3 (Q68DX3 770-861): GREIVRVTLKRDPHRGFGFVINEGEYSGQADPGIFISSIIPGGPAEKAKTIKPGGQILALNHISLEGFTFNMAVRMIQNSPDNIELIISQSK

Row | pKd | Binder
11 | below the threshold | PLDSQQHTEV [FAT1, Q14517]
12 | below the threshold | RQSILFSTEV [BCR, P11274]

These binders were tested against GORASP2, Q9H8Y8 (assay: holdup assay). Settings: plain residues with an end cap or a label only (N-terminal biotin on a linker: ado-ado).
Parameters: key: below the threshold = too weak to quantify, mostly under pKd 3.1 to 4

Row | pKd | Binder
13 | below the threshold | PLDSQQHTEV [FAT1, Q14517]
14 | 3.82 | RQSILFSTEV [BCR, P11274]

What follows are binders tested against T3, DLG3_2, Q92796 (assay: holdup assay). Settings: plain residues with an end cap or a label only (N-terminal biotin on a linker: ado-ado).
Parameters: key: below the threshold = too weak to quantify, mostly under pKd 3.1 to 4

Row | pKd | Binder
15 | 4.77 | PLDSQQHTEV [FAT1, Q14517]
16 | 4.79 | RQSILFSTEV [BCR, P11274]

Each binder was assayed against T4, PARD3B_1, Q8TEW8 (assay: holdup assay). Settings: plain residues with an end cap or a label only (N-terminal biotin on a linker: ado-ado).
Parameters: key: below the threshold = too weak to quantify, mostly under pKd 3.1 to 4

Row | pKd | Binder
17 | below the threshold | PLDSQQHTEV [FAT1, Q14517]
18 | below the threshold | RQSILFSTEV [BCR, P11274]

These binders were tested against T5, RHPN1, Q8TCX5 (assay: holdup assay). Settings: plain residues with an end cap or a label only (N-terminal biotin on a linker: ado-ado).
Parameters: key: below the threshold = too weak to quantify, mostly under pKd 3.1 to 4

Row | pKd | Binder
19 | 4.07 | PLDSQQHTEV [FAT1, Q14517]
20 | 3.94 | RQSILFSTEV [BCR, P11274]

These binders were tested against LNX1_1, Q8TBB1 (assay: holdup assay). Settings: plain residues with an end cap or a label only (N-terminal biotin on a linker: ado-ado).
Parameters: key: below the threshold = too weak to quantify, mostly under pKd 3.1 to 4

Chain of LNX1_1, Q8TBB1 (Q8TBB1 261-371): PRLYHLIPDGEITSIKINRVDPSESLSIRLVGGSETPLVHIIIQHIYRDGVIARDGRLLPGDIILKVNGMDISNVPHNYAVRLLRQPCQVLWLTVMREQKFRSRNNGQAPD

Row | pKd | Binder
21 | below the threshold | PLDSQQHTEV [FAT1, Q14517]
22 | 4.85 | RQSILFSTEV [BCR, P11274]

What follows are binders tested against Inadl_8, Q8NI35 (assay: holdup assay). Settings: plain residues with an end cap or a label only (N-terminal biotin on a linker: ado-ado).
Parameters: key: below the threshold = too weak to quantify, mostly under pKd 3.1 to 4

Chain of Inadl_8, Q8NI35 (Q8NI35 1425-1530): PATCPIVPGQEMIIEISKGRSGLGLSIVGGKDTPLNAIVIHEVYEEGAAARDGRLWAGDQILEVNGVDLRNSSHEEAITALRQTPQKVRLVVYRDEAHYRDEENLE

Row | pKd | Binder
23 | below the threshold | PLDSQQHTEV [FAT1, Q14517]
24 | 4.49 | RQSILFSTEV [BCR, P11274]

What follows are binders tested against T6, DVL3, Q92997 (assay: holdup assay). Settings: plain residues with an end cap or a label only (N-terminal biotin on a linker: ado-ado).
Parameters: key: below the threshold = too weak to quantify, mostly under pKd 3.1 to 4

Row | pKd | Binder
25 | below the threshold | PLDSQQHTEV [FAT1, Q14517]
26 | below the threshold | RQSILFSTEV [BCR, P11274]

These binders were tested against PARD3_3, Q8TEW0 (assay: holdup assay). Settings: plain residues with an end cap or a label only (N-terminal biotin on a linker: ado-ado).
Parameters: key: below the threshold = too weak to quantify, mostly under pKd 3.1 to 4

Chain of PARD3_3, Q8TEW0 (Q8TEW0 582-685): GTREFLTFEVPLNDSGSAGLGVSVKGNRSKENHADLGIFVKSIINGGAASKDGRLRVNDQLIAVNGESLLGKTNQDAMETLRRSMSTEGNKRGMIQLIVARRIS

Row | pKd | Binder
27 | below the threshold | PLDSQQHTEV [FAT1, Q14517]
28 | below the threshold | RQSILFSTEV [BCR, P11274]

The binders below were run against T7, SNTG2, Q9NY99 (assay: holdup assay). Settings: plain residues with an end cap or a label only (N-terminal biotin on a linker: ado-ado).
Parameters: key: below the threshold = too weak to quantify, mostly under pKd 3.1 to 4

Row | pKd | Binder
29 | 3.67 | PLDSQQHTEV [FAT1, Q14517]
30 | 4.1 | RQSILFSTEV [BCR, P11274]

Each binder was assayed against LIMK2, P53671 (assay: holdup assay). Settings: plain residues with an end cap or a label only (N-terminal biotin on a linker: ado-ado).
Parameters: key: below the threshold = too weak to quantify, mostly under pKd 3.1 to 4

Chain of LIMK2, P53671 (P53671 143-248): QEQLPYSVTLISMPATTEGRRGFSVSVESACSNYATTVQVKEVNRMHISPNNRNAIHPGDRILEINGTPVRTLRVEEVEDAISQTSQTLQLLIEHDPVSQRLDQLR

Row | pKd | Binder
31 | below the threshold | PLDSQQHTEV [FAT1, Q14517]
32 | below the threshold | RQSILFSTEV [BCR, P11274]

What follows are binders tested against GOPC, Q9HD26 (assay: holdup assay). Settings: plain residues with an end cap or a label only (N-terminal biotin on a linker: ado-ado).
Parameters: key: below the threshold = too weak to quantify, mostly under pKd 3.1 to 4

Row | pKd | Binder
33 | 3.81 | PLDSQQHTEV [FAT1, Q14517]
34 | 4.5 | RQSILFSTEV [BCR, P11274]

These binders were tested against TJP1_2, Q07157 (assay: holdup assay). Settings: plain residues with an end cap or a label only (N-terminal biotin on a linker: ado-ado).
Parameters: key: below the threshold = too weak to quantify, mostly under pKd 3.1 to 4

Chain of TJP1_2, Q07157 (Q07157 181-274): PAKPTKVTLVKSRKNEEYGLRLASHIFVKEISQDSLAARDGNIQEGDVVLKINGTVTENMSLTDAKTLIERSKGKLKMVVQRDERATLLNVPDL

Row | pKd | Binder
35 | 3.62 | PLDSQQHTEV [FAT1, Q14517]
36 | 3.62 | RQSILFSTEV [BCR, P11274]

Each binder was assayed against T8, DLG3_1, Q92796 (assay: holdup assay). Settings: plain residues with an end cap or a label only (N-terminal biotin on a linker: ado-ado).
Parameters: key: below the threshold = too weak to quantify, mostly under pKd 3.1 to 4

Row | pKd | Binder
37 | 3.8 | PLDSQQHTEV [FAT1, Q14517]
38 | 4.17 | RQSILFSTEV [BCR, P11274]

These binders were tested against SCRIB_1, Q14160 (assay: holdup assay). Settings: plain residues with an end cap or a label only (N-terminal biotin on a linker: ado-ado).
Parameters: key: below the threshold = too weak to quantify, mostly under pKd 3.1 to 4

Chain of SCRIB_1, Q14160 (Q14160 718-814): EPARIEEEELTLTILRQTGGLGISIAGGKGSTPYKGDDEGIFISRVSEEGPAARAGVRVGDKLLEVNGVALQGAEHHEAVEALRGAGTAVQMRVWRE

Row | pKd | Binder
39 | 4.12 | PLDSQQHTEV [FAT1, Q14517]
40 | 4.69 | RQSILFSTEV [BCR, P11274]

These binders were tested against LNX1_2, Q8TBB1 (assay: holdup assay). Settings: plain residues with an end cap or a label only (N-terminal biotin on a linker: ado-ado).
Parameters: key: below the threshold = too weak to quantify, mostly under pKd 3.1 to 4

Chain of LNX1_2, Q8TBB1 (Q8TBB1 371-470): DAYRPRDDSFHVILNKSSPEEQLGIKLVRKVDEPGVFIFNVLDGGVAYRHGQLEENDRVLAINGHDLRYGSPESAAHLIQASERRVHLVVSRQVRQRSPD

Row | pKd | Binder
41 | below the threshold | PLDSQQHTEV [FAT1, Q14517]
42 | 3.74 | RQSILFSTEV [BCR, P11274]

What follows are binders tested against MAST2, Q6P0Q8 (assay: holdup assay). Settings: plain residues with an end cap or a label only (N-terminal biotin on a linker: ado-ado).
Parameters: key: below the threshold = too weak to quantify, mostly under pKd 3.1 to 4

Chain of MAST2, Q6P0Q8 (Q6P0Q8 1099-1202): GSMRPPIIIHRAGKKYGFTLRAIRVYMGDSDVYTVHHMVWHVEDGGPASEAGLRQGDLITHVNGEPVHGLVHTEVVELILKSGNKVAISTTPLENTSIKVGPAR

Row | pKd | Binder
43 | 5.21 | PLDSQQHTEV [FAT1, Q14517]
44 | 5.4 | RQSILFSTEV [BCR, P11274]

What follows are binders tested against T9, APBA2_1, Q99767 (assay: holdup assay). Settings: plain residues with an end cap or a label only (N-terminal biotin on a linker: ado-ado).
Parameters: key: below the threshold = too weak to quantify, mostly under pKd 3.1 to 4

Row | pKd | Binder
45 | below the threshold | PLDSQQHTEV [FAT1, Q14517]
46 | below the threshold | RQSILFSTEV [BCR, P11274]

What follows are binders tested against Inadl_6, Q8NI35 (assay: holdup assay). Settings: plain residues with an end cap or a label only (N-terminal biotin on a linker: ado-ado).
Parameters: key: below the threshold = too weak to quantify, mostly under pKd 3.1 to 4

Chain of Inadl_6, Q8NI35 (Q8NI35 1058-1167): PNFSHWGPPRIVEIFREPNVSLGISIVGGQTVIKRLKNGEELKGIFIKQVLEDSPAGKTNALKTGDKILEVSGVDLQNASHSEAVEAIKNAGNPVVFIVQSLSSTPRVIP

Row | pKd | Binder
47 | below the threshold | PLDSQQHTEV [FAT1, Q14517]
48 | 3.93 | RQSILFSTEV [BCR, P11274]

What follows are binders tested against T10, SHANK1, Q9Y566 (assay: holdup assay). Settings: plain residues with an end cap or a label only (N-terminal biotin on a linker: ado-ado).
Parameters: key: below the threshold = too weak to quantify, mostly under pKd 3.1 to 4

Row | pKd | Binder
49 | below the threshold | PLDSQQHTEV [FAT1, Q14517]
50 | 4.58 | RQSILFSTEV [BCR, P11274]

These binders were tested against SCRIB_2, Q14160 (assay: holdup assay). Settings: plain residues with an end cap or a label only (N-terminal biotin on a linker: ado-ado).
Parameters: key: below the threshold = too weak to quantify, mostly under pKd 3.1 to 4

Chain of SCRIB_2, Q14160 (Q14160 857-960): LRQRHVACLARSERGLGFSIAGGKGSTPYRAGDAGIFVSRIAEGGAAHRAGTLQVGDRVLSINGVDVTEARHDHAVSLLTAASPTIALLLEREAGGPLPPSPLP

Row | pKd | Binder
51 | 4.21 | PLDSQQHTEV [FAT1, Q14517]
52 | 4.54 | RQSILFSTEV [BCR, P11274]

Each binder was assayed against IL16_3, Q14005 (assay: holdup assay). Settings: plain residues with an end cap or a label only (N-terminal biotin on a linker: ado-ado).
Parameters: key: below the threshold = too weak to quantify, mostly under pKd 3.1 to 4

Chain of IL16_3, Q14005 (Q14005 1107-1207): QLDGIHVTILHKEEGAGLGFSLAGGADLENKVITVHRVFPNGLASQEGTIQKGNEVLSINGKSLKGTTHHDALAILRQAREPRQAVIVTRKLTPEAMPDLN

Row | pKd | Binder
53 | below the threshold | PLDSQQHTEV [FAT1, Q14517]
54 | below the threshold | RQSILFSTEV [BCR, P11274]
